Tests used:
FXR1P Isoe = test: filter binding competition; conditions: self-competition, 32P-Sod1; EMSA or filter binding as in ref 4, with K+ or Na+; buffer, pH and temperature not in the material
[1] = test system: FMRP (His-tagged recombinant); test: filter binding competition; conditions: vs 32P-N19; EMSA or filter binding as in ref 4, with K+ or Na+; buffer, pH and temperature not in the material
[2] = test system: FMRP (His-tagged recombinant); test: EMSA competition; conditions: vs 32P-N19; EMSA or filter binding as in ref 4, with K+ or Na+; buffer, pH and temperature not in the material

Substance | IC50 (FXR1P Isoe) [nM] | IC50 [1] [nM] | binding signal (% competition at 5 nM) [2]
Sod1 full-length mRNA | 20 | 3 | 65
Sod1-5' region |  | 3 | 
